From patent US20110217237A1 (AbbVie / Abbott, published 2011) come the findings set out here.

The target in experiment [1] is T1, human DLL4 extracellular domain (human, UniProt Q9NR61 27-529).
T1 construct: purified recombinant ECD; biotin-labelled or 6xHis-tagged depending on the assay; also called huDLL4 ECD; hu DLL4 ECD
Kind of experiment: SPR (Biacore). The gist of the method: (§1)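 Purified anti-DLL4 antibodies (1 μg/ml) captured on immobilized goat anti-human Fc, with DLL4 ECD injected as analyte; HBS-EPB running buffer (pH 7.4), 25° C, referenced against capture-only surface. On/off rates from global 1:1 Langmuir fit; KD = Koff/Kon.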

Experiment [2] concerns the target T2, cynomolgus monkey DLL4 extracellular domain (cynomolgus monkey).
T2 construct: extracellular domain; also called cynoDLL4 ECD; Cyno DLL4
Briefly: SPR (Biacore). The method in brief: as §1

For experiment [3], the target named is T3, mouse DLL4 on cells (mouse, UniProt Q9JI71 27-686). Kind of experiment: cell-based or functional assay.
T3 sequence (Q9JI71 27-686): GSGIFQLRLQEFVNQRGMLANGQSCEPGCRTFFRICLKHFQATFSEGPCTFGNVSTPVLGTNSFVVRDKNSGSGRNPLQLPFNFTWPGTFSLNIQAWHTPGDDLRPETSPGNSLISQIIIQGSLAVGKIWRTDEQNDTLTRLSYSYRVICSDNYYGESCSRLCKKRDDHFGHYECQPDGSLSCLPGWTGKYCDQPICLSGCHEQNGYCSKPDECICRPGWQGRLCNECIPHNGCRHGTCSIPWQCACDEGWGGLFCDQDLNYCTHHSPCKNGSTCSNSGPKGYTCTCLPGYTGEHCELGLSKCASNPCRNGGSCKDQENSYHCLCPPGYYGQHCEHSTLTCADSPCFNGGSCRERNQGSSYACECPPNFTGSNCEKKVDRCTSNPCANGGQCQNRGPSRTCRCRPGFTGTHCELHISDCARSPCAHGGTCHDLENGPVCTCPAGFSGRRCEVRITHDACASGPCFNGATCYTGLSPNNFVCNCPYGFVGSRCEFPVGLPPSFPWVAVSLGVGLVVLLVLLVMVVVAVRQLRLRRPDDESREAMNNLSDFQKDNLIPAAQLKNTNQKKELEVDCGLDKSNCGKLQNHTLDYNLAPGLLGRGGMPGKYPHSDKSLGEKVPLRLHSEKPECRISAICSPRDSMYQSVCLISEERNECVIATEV
Experiment [4] deals with T4, human DLL4, full length, on cells (human, UniProt Q9NR61 27-685). Kind of experiment: cell-based or functional assay.
T4 sequence (Q9NR61 27-685 limits assumed): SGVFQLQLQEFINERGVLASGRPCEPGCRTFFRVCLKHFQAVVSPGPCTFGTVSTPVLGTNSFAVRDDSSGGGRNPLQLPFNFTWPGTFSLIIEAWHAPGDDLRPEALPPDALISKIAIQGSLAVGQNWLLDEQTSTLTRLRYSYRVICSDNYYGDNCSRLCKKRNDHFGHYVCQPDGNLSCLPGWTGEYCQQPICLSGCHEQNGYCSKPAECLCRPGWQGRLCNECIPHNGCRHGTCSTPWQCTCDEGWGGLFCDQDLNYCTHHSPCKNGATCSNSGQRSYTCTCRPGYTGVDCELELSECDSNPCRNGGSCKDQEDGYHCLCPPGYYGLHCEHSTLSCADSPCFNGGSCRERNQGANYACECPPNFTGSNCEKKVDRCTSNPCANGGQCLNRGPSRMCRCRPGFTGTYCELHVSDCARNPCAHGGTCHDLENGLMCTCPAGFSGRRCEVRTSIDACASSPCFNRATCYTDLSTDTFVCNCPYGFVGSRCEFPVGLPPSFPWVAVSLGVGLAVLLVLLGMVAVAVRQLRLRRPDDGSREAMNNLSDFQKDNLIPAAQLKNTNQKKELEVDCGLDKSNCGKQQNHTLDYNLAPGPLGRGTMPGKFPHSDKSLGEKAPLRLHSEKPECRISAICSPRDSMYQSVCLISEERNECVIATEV
The target in experiment [5] is T3, mouse DLL4 on cells. Briefly: FACS, direct binding to DLL4 cells. The method, then: (§2) Stable cell lines overexpressing cell-surface DLL4 were harvested from tissue culture flasks, washed four times and resuspended in phosphate buffered saline (PBS) containing 1% bovine serum albumin and 1 mM CaCl₂ (FACS buffer). 1.5×10⁵ cells were incubated with antibodies at various concentrations in FACS buffer for 60 minutes on ice. […] Following an incubation on ice (4° C., 60 minutes), cells were washed three times and resuspended in FACS buffer. Fluorescence was measured using a Becton Dickinson FACSCalibur-HTS (Becton Dickinson, San Jose, Calif., US). Data were analyzed using Graphpad Prism software and EC₅₀ values were reported as the concentration of antibody to achieve 50% of maximal DLL4 antibodies binding to DLL4 expressing cells.
(§3) The hu1A11.1 affinity matured clones (Table 22) were expressed, purified, and further characterized in vitro. Their activities of binding to cell-bound DLL4 and inhibiting cell-bound DLL4-induced Notch activation were further examined using methods described in Examples 1.3 and 1.6, and are summarized in Table 26 (below).

Experiment [6] addresses T4, human DLL4, full length, on cells. Kind of experiment: FACS, direct binding to DLL4 cells. The protocol:
as §2, §3

In experiment [7] the target is T5, rat DLL4 extracellular domain (rat, UniProt D3ZHH1 28-530).
T5 construct: extracellular domain; also called ratDLL4 ECD
T5 sequence (D3ZHH1 28-530): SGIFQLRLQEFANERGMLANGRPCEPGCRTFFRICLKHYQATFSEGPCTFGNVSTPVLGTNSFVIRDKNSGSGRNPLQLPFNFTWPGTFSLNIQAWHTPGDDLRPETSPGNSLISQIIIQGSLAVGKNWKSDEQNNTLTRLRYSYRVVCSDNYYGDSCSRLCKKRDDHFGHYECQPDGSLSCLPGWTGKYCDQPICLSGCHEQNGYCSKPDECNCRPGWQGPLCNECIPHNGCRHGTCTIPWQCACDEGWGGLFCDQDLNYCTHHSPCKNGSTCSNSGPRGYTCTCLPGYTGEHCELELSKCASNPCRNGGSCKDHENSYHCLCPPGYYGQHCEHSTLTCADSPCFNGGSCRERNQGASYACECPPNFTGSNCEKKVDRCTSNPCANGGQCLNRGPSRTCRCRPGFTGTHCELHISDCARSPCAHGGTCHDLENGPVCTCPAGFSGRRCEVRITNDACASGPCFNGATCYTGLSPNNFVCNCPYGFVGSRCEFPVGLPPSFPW
Kind of experiment: SPR (Biacore). The method in brief: as §1

For experiment [8], the target named is T6, mouse DLL4 extracellular domain (mouse, UniProt Q9JI71 27-532).
T6 construct: extracellular domain; also called muDLL4 ECD; murine DLL4
T6 sequence (Q9JI71 27-532): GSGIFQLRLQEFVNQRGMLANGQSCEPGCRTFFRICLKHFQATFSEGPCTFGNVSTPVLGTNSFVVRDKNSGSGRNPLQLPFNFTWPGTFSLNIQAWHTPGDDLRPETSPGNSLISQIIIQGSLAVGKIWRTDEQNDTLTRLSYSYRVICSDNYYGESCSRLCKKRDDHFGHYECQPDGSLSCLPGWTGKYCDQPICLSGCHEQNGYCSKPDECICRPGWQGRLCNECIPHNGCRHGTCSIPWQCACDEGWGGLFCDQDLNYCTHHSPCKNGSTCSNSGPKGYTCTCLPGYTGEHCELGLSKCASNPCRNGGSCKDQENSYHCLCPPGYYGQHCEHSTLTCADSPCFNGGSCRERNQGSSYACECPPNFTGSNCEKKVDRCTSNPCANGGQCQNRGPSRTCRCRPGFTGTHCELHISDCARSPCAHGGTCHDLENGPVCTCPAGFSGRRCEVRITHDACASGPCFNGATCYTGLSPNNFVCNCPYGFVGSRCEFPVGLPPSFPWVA
Kind of experiment: SPR (Biacore). The gist of the method: as §1

T1 sequence (Q9NR61 27-529 limits assumed): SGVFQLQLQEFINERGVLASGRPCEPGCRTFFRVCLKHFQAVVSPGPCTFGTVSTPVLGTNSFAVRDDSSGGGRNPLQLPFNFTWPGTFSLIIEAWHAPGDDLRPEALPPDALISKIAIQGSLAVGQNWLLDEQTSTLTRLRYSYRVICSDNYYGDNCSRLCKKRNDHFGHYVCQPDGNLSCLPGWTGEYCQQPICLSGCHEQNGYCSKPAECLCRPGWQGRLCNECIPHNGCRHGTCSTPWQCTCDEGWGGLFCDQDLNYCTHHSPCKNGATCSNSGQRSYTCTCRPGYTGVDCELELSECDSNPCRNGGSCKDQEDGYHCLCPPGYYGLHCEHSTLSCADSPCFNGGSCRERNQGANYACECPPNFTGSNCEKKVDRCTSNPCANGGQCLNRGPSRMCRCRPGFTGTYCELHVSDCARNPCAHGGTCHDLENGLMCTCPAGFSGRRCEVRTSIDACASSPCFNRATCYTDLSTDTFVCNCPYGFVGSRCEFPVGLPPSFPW

B1: h1A11.A8 (antibody, V domains shown)
VH: EVQLVESGGGLVQPGGSLRLSCAASGFTFGNFPMSWVRQAPGKGLEWVASISSSDSWATIGDSVKGRFTISRDNAKNSLYLQMNSLRAEDTAVYYCSRGYYNSPFAYWGQGTLVTVSS
VL: DIQMTQSPSSLSASVGDRVTITCRASEDIYSNLAWYQQKPGKAPKLLIYDTNNLADGVPSRFSGSGSGTDFTLTISSLQPEDFATYYCQQYNNYPPTFGQGTKLEIK
notes: also called h1A11.A8 VH / h1A11VL.1
In the case of B1, the Kd in experiment [1] was 62 pM; in experiment [2], 150 pM; in experiment [7] it was 47000 pM; in experiment [8], 180 pM. The koff in experiment [1] is 1.08e-05 s⁻¹; in experiment [2], 2.4e-05 s⁻¹; in experiment [7], 0.0065 s⁻¹; in experiment [8], 3.27e-05 s⁻¹. Besides, the kon in experiment [1] is 174000 M⁻¹ s⁻¹; in experiment [2], 160000 M⁻¹ s⁻¹; in experiment [7], 139000 M⁻¹ s⁻¹; in experiment [8], 187000 M⁻¹ s⁻¹. In addition, the “Inhibition of Notch Activation via DLL4 cells, Notch reporter assay” value (from here on “Inhibition”) came out at 1.25 nM with mouse DLL4 on cells [3] and 1.33 nM in experiment [4]. The 50% effective concentration (EC50) with mouse DLL4 on cells [5] stood at 744 pM; in experiment [6] it was 3160 pM.

B2: h1A11.E12 (antibody, V domains shown)
VH: EVQLVESGGGLVQPGGSLRLSCAASGFTFRYFPMAWVRQAPGKGLEWVATISGSDEWPNYRDSVKGRFTISRDNAKNSLYLQMNSLRAEDTAVYYCARGYYNSPFAFWGQGTLVTVSS
VL: DIQMTQSPSSLSASVGDRVTITCRASQEIYRNLAWYQQKPGKSPKLLIFDTSVLADGVPSRFSGSGSGTDSTLTISSLQPEDFATYYCQQYTYYPPTFGQGTKLEIK
notes: also called h1A11.E12 VH / h1A11.E12 VL
Take B2: the equilibrium dissociation constant (Kd) is 220 pM in experiment [1], 280 pM in experiment [2], 1600 pM in experiment [7] and 350 pM in experiment [8]. Further, the koff in experiment [1] turned out to be 3.26e-05 s⁻¹; in experiment [2], 3.84e-05 s⁻¹; in experiment [7], 0.000175 s⁻¹; in experiment [8], 5.44e-05 s⁻¹. In addition, the kon in experiment [1] came to 149000 M⁻¹ s⁻¹; in experiment [2], 137000 M⁻¹ s⁻¹; in experiment [7], 108000 M⁻¹ s⁻¹; in experiment [8], 156000 M⁻¹ s⁻¹. Besides, the figures for the “Inhibition” value (with mouse DLL4 on cells [3]; in experiment [4]) were 0.266 nM and 0.208 nM, respectively. The figures for the EC50 (with mouse DLL4 on cells [5]; in experiment [6]) were 1620 pM and 996 pM, respectively.

B3: h1A11.A11 (antibody, V domains shown)
VH: EVQLVESGGGLVQPGGSLRLSCAASGFTFRHFPMAWVRQAPGKGLEWVATISSSDDWPNYRDSVKGRFTISRDNAKSSLYLQMNSLRAEDTAVYYCSRGYYNSPFAYWGQGTLVTVSS
VL: DIQMTQSPSSLSASVGDRVTITCRASEDIYSNLAWYQQKPGKAPKLLIYDTNNLADGVPSRFSGSGSGTDFTLTISSLQPEDFATYYCQQYNNYPPTFGQGTKLEIK
notes: also called h1A11.A11 VH / h1A11VL.1
As to B3, the Kd in experiment [1] stood at 150 pM; in experiment [2] it was 200 pM; in experiment [7], 8800 pM; in experiment [8] it was 180 pM. For the same molecule, the koff in experiment [1] came out at 2.66e-05 s⁻¹; in experiment [2], 3.35e-05 s⁻¹; in experiment [7], 0.00102 s⁻¹; in experiment [8], 3.54e-05 s⁻¹. The kon in experiment [1] was 183000 M⁻¹ s⁻¹; in experiment [2], 170000 M⁻¹ s⁻¹; in experiment [7] it was 116000 M⁻¹ s⁻¹; in experiment [8], 198000 M⁻¹ s⁻¹. Further, the “Inhibition” value with mouse DLL4 on cells [3] is 1.18 nM; in experiment [4], 0.904 nM. Moreover, the EC50 with mouse DLL4 on cells [5] came to 500 pM; in experiment [6], 2480 pM.

B4: h1A11.H2 (antibody, V domains shown)
VH: EVQLVESGGGLVQPGGSLRLSCAASGFTFGNFPMSWVRQAPGKGLEWVASISSSDSWATIGDSVKGRFTISRDNAKNSLYLQMNSLRAEDTAVYYCARGYYNSPFAFWGQGTLVTVSS
VL: DIQMTQSPSSLSASVGDRVTITCRASQEIYRNLAWYQQKPGKSPKLLIFDTSVLADGVPSRFSGSGSGTDSTLTISSLQPEDFATYYCQQYTYYPPTFGQGTKLEIK
notes: also called h1A11.H2 VH / h1A11.E12 VL
Regarding B4, the Kd came out at 270 pM in experiment [1], 350 pM in experiment [2], 16000 pM in experiment [7] and 330 pM in experiment [8]. Further, the koff came to 3.85e-05 s⁻¹ in experiment [1], 4.6e-05 s⁻¹ in experiment [2], 0.00283 s⁻¹ in experiment [7] and 5.07e-05 s⁻¹ in experiment [8]. The kon in experiment [1] is 143000 M⁻¹ s⁻¹; in experiment [2], 131000 M⁻¹ s⁻¹; in experiment [7], 178000 M⁻¹ s⁻¹; in experiment [8], 154000 M⁻¹ s⁻¹. Also, the “Inhibition” value with mouse DLL4 on cells [3] is 0.586 nM; in experiment [4], 0.856 nM. Also, the results for the EC50 (with mouse DLL4 on cells [5]; in experiment [6]) were 420 pM and 1980 pM, respectively.
